T1: recombinant human activated Factor VII (FVIIa) (human, UniProt P08709 61-212; P08709 213-466, ten glutamate residues of the Gla domain may be gamma-carboxylated)
T1 construct: chains tethered by a disulfide bond; also called Factor VIIa; rFVIIa
T1 sequence 1: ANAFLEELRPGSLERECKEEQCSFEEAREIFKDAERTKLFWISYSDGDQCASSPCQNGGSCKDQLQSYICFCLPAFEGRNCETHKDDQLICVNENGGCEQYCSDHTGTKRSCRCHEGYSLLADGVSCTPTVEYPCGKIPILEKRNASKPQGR
T1 sequence 2: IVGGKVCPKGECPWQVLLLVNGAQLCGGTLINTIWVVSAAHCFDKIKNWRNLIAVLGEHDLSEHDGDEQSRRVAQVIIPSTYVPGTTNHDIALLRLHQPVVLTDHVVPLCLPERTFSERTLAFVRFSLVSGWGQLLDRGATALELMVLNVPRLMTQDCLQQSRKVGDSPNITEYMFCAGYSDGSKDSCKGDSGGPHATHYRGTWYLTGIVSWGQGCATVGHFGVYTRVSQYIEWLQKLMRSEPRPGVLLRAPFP


What follows are binders tested against T1, recombinant human activated Factor VII … (assay: BLI (Fortebio)).

Row | Kd [nM] | Binder
1 | 10 | VH SEQ ID NO 546 / VL SEQ ID NO 446 (antibody, IgG4, V domains shown, humanized 11F2; IgG4 S228P/kappa) VH: QVQLQESGPGLVEPSQTLSLTCTVSGYSITSDSAWSWIRQPPGKKLEWIGYIQYSGSTNYNPSLKSRVTISRDTSKNQFSLKLSSVTAADTAVYYCARSVNYYGNSFAVGYWGQGTSVTVSS VL: EIVLTQSPATLSLSPGERATLSCRASQGVSDYLAWYQQKPGQAPRLLIKYTSQPATGIPARFSGSGSGTDFTLTISSLEPEDFAVYYCQNGHSFPLTFGQGTKLEIK
2 | 1.2 | VH SEQ ID NO 546 / VL SEQ ID NO 494 (antibody, IgG4, V domains shown, humanized 11F2; IgG4 S228P/kappa) VH: QVQLQESGPGLVEPSQTLSLTCTVSGYSITSDSAWSWIRQPPGKKLEWIGYIQYSGSTNYNPSLKSRVTISRDTSKNQFSLKLSSVTAADTAVYYCARSVNYYGNSFAVGYWGQGTSVTVSS VL: EIVLTQSPATLSLSPGERATLSCRASQGVSDYLHWYQQKPGQAPRLLIKYASQPATGIPARFSGSGSGTDFTLTISSLEPEDVAVYYCQNGHSFPLTFGQGTKLEIK
3 | 19 | VH SEQ ID NO 554 / VL SEQ ID NO 486 (antibody, IgG4, V domains shown, humanized 11F2; IgG4 S228P/kappa) VH: QVQLQESGPGLVKPSDTLSLTCAVSGYSISSDSAWSWIRQFPGKGLEWIGYIQYSGSTNYNPSLKSRVTMSVDTSKNQFSLKLSSVTALDTAVYYCARSVNYYGNSFAVGPWGQGTLVTVSS VL: EIVLTQSPATLSLSPGERATLSCRASQGVSDYLHWYQQKPGQAPRLLIKYASQPATGIPARFSGSGSGTDFTLTISSLEPEDFGVYYCQNGHSFPLTFGQGTKLEIK
4 | 1.2 | VH SEQ ID NO 546 / VL SEQ ID NO 470 (antibody, IgG4, V domains shown, humanized 11F2; IgG4 S228P/kappa) VH: QVQLQESGPGLVEPSQTLSLTCTVSGYSITSDSAWSWIRQPPGKKLEWIGYIQYSGSTNYNPSLKSRVTISRDTSKNQFSLKLSSVTAADTAVYYCARSVNYYGNSFAVGYWGQGTSVTVSS VL: EIVLTQSPATLSLSPGERATLSCRASQGVSDYLHWYQQKPGQAPRLLIKYASQPATGIPARFSGSGSGTDFTLTISSLEPEDFAVYYCQNGHSFPLTFGQGTKLEIK
5 | 19 | VH SEQ ID NO 554 / VL SEQ ID NO 350 (antibody, IgG4, V domains shown, humanized 11F2; IgG4 S228P/kappa) VH: QVQLQESGPGLVKPSDTLSLTCAVSGYSISSDSAWSWIRQFPGKGLEWIGYIQYSGSTNYNPSLKSRVTMSVDTSKNQFSLKLSSVTALDTAVYYCARSVNYYGNSFAVGPWGQGTLVTVSS VL: EIVLTQSPATLSLSPGERATLSCRASQGISDYLHWYQQKPGQAPRLLIKYTSQPATGIPARFSGSGSGTDFTLTISSLEPEDFAVYYCQNGHSFPLTFGAGTKLELK
6 | 15 | VH SEQ ID NO 554 / VL SEQ ID NO 318 (antibody, IgG4, V domains shown, humanized 11F2; IgG4 S228P/kappa) VH: QVQLQESGPGLVKPSDTLSLTCAVSGYSISSDSAWSWIRQFPGKGLEWIGYIQYSGSTNYNPSLKSRVTMSVDTSKNQFSLKLSSVTALDTAVYYCARSVNYYGNSFAVGPWGQGTLVTVSS VL: EIVLTQSPATLSLSPGERATLSCRASQGISDYLHWYQQKPGEAPRLLIKYTSQPATGIPARFSGSGSGTDFTLTISSLEPEDFAVYYCQNGHSFPLTFGQGTKLEIK
7 | 18 | VH SEQ ID NO 554 / VL SEQ ID NO 334 (antibody, IgG4, V domains shown, humanized 11F2; IgG4 S228P/kappa) VH: QVQLQESGPGLVKPSDTLSLTCAVSGYSISSDSAWSWIRQFPGKGLEWIGYIQYSGSTNYNPSLKSRVTMSVDTSKNQFSLKLSSVTALDTAVYYCARSVNYYGNSFAVGPWGQGTLVTVSS VL: EIVLTQSPATLSLSPGERATLSCRASQGISDYLHWYQQKPGQAPRLLIKYASQPATGIPARFSGSGSGTDFTLTISSLEPEDFAVYYCQNGHSFPLTFGQGTKLEIK
8 | 19 | VH SEQ ID NO 554 / VL SEQ ID NO 470 (antibody, IgG4, V domains shown, humanized 11F2; IgG4 S228P/kappa) VH: QVQLQESGPGLVKPSDTLSLTCAVSGYSISSDSAWSWIRQFPGKGLEWIGYIQYSGSTNYNPSLKSRVTMSVDTSKNQFSLKLSSVTALDTAVYYCARSVNYYGNSFAVGPWGQGTLVTVSS VL: EIVLTQSPATLSLSPGERATLSCRASQGVSDYLHWYQQKPGQAPRLLIKYASQPATGIPARFSGSGSGTDFTLTISSLEPEDFAVYYCQNGHSFPLTFGQGTKLEIK
9 | 20 | VH SEQ ID NO 554 / VL SEQ ID NO 462 (antibody, IgG4, V domains shown, humanized 11F2; IgG4 S228P/kappa) VH: QVQLQESGPGLVKPSDTLSLTCAVSGYSISSDSAWSWIRQFPGKGLEWIGYIQYSGSTNYNPSLKSRVTMSVDTSKNQFSLKLSSVTALDTAVYYCARSVNYYGNSFAVGPWGQGTLVTVSS VL: EIVLTQSPATLSLSPGERATLSCRASQGVSDYLHWYQQKPGQAPRLLIKYASQPATGIPARFSGSGSGTDFTLTISSLEPEDFAVYYCQNGHSFPLTFGAGTKLEIK
10 | 1.1 | VH SEQ ID NO 546 / VL SEQ ID NO 454 (antibody, IgG4, V domains shown, humanized 11F2; IgG4 S228P/kappa) VH: QVQLQESGPGLVEPSQTLSLTCTVSGYSITSDSAWSWIRQPPGKKLEWIGYIQYSGSTNYNPSLKSRVTISRDTSKNQFSLKLSSVTAADTAVYYCARSVNYYGNSFAVGYWGQGTSVTVSS VL: EIVLTQSPATLSLSPGERATLSCRASQGVSDYLHWYQQKPGEAPRLLIKYASQPATGIPARFSGSGSGTDFTLTISSLEPEDFAVYYCQNGHSFPLTFGQGTKLEIK
11 | 1.1 | VH SEQ ID NO 546 / VL SEQ ID NO 502 (antibody, IgG4, V domains shown, humanized 11F2; IgG4 S228P/kappa) VH: QVQLQESGPGLVEPSQTLSLTCTVSGYSITSDSAWSWIRQPPGKKLEWIGYIQYSGSTNYNPSLKSRVTISRDTSKNQFSLKLSSVTAADTAVYYCARSVNYYGNSFAVGYWGQGTSVTVSS VL: EIVLTQSPATLSLSPGERATLSCRASQGVSDYLHWYQQKPGQAPRLLIKYTSQPATGIPARFSGSGSGTDFTLTISSLEPEDFAVYYCQNGHSFPLTFGQGTKLEIK
12 | 1.1 | VH SEQ ID NO 546 / VL SEQ ID NO 486 (antibody, IgG4, V domains shown, humanized 11F2; IgG4 S228P/kappa) VH: QVQLQESGPGLVEPSQTLSLTCTVSGYSITSDSAWSWIRQPPGKKLEWIGYIQYSGSTNYNPSLKSRVTISRDTSKNQFSLKLSSVTAADTAVYYCARSVNYYGNSFAVGYWGQGTSVTVSS VL: EIVLTQSPATLSLSPGERATLSCRASQGVSDYLHWYQQKPGQAPRLLIKYASQPATGIPARFSGSGSGTDFTLTISSLEPEDFGVYYCQNGHSFPLTFGQGTKLEIK
13 | 21 | VH SEQ ID NO 554 / VL SEQ ID NO 382 (antibody, IgG4, V domains shown, humanized 11F2; IgG4 S228P/kappa) VH: QVQLQESGPGLVKPSDTLSLTCAVSGYSISSDSAWSWIRQFPGKGLEWIGYIQYSGSTNYNPSLKSRVTMSVDTSKNQFSLKLSSVTALDTAVYYCARSVNYYGNSFAVGPWGQGTLVTVSS VL: EIVLTQSPATLSLSPGERATLSCRASQGLSDYLHWYQQKPGEAPRLLIKYASQPATGIPARFSGSGSGTDFTLTISSLEPEDFAVYYCQNGHSFPLTFGQGTKLEIK
14 | 1.1 | VH SEQ ID NO 546 / VL SEQ ID NO 462 (antibody, IgG4, V domains shown, humanized 11F2; IgG4 S228P/kappa) VH: QVQLQESGPGLVEPSQTLSLTCTVSGYSITSDSAWSWIRQPPGKKLEWIGYIQYSGSTNYNPSLKSRVTISRDTSKNQFSLKLSSVTAADTAVYYCARSVNYYGNSFAVGYWGQGTSVTVSS VL: EIVLTQSPATLSLSPGERATLSCRASQGVSDYLHWYQQKPGQAPRLLIKYASQPATGIPARFSGSGSGTDFTLTISSLEPEDFAVYYCQNGHSFPLTFGAGTKLEIK
15 | 21 | VH SEQ ID NO 554 / VL SEQ ID NO 478 (antibody, IgG4, V domains shown, humanized 11F2; IgG4 S228P/kappa) VH: QVQLQESGPGLVKPSDTLSLTCAVSGYSISSDSAWSWIRQFPGKGLEWIGYIQYSGSTNYNPSLKSRVTMSVDTSKNQFSLKLSSVTALDTAVYYCARSVNYYGNSFAVGPWGQGTLVTVSS VL: EIVLTQSPATLSLSPGERATLSCRASQGVSDYLHWYQQKPGQAPRLLIKYASQPATGIPARFSGSGSGTDFTLTISSLEPEDFAVYYCQQGHSFPLTFGQGTKLEIK
16 | 16 | VH SEQ ID NO 554 / VL SEQ ID NO 358 (antibody, IgG4, V domains shown, humanized 11F2; IgG4 S228P/kappa) VH: QVQLQESGPGLVKPSDTLSLTCAVSGYSISSDSAWSWIRQFPGKGLEWIGYIQYSGSTNYNPSLKSRVTMSVDTSKNQFSLKLSSVTALDTAVYYCARSVNYYGNSFAVGPWGQGTLVTVSS VL: EIVLTQSPATLSLSPGERATLSCRASQGISDYLHWYQQKPGQAPRLLIKYTSQPATGIPARFSGSGSGTDFTLTISSLEPEDFAVYYCQNGHSFPLTFGQGTKLEIK
17 | 2 | VH SEQ ID NO 546 / VL SEQ ID NO 478 (antibody, IgG4, V domains shown, humanized 11F2; IgG4 S228P/kappa) VH: QVQLQESGPGLVEPSQTLSLTCTVSGYSITSDSAWSWIRQPPGKKLEWIGYIQYSGSTNYNPSLKSRVTISRDTSKNQFSLKLSSVTAADTAVYYCARSVNYYGNSFAVGYWGQGTSVTVSS VL: EIVLTQSPATLSLSPGERATLSCRASQGVSDYLHWYQQKPGQAPRLLIKYASQPATGIPARFSGSGSGTDFTLTISSLEPEDFAVYYCQQGHSFPLTFGQGTKLEIK
18 | 23 | VH SEQ ID NO 554 / VL SEQ ID NO 342 (antibody, IgG4, V domains shown, humanized 11F2; IgG4 S228P/kappa) VH: QVQLQESGPGLVKPSDTLSLTCAVSGYSISSDSAWSWIRQFPGKGLEWIGYIQYSGSTNYNPSLKSRVTMSVDTSKNQFSLKLSSVTALDTAVYYCARSVNYYGNSFAVGPWGQGTLVTVSS VL: EIVLTQSPATLSLSPGERATLSCRASQGISDYLHWYQQKPGQAPRLLIKYTSQPATGIPARFSGSGSGRDFTLTISSLEPEDFAVYYCQNGHSFPLTFGAGTKLELK
19 | 19 | VH SEQ ID NO 554 / VL SEQ ID NO 454 (antibody, IgG4, V domains shown, humanized 11F2; IgG4 S228P/kappa) VH: QVQLQESGPGLVKPSDTLSLTCAVSGYSISSDSAWSWIRQFPGKGLEWIGYIQYSGSTNYNPSLKSRVTMSVDTSKNQFSLKLSSVTALDTAVYYCARSVNYYGNSFAVGPWGQGTLVTVSS VL: EIVLTQSPATLSLSPGERATLSCRASQGVSDYLHWYQQKPGEAPRLLIKYASQPATGIPARFSGSGSGTDFTLTISSLEPEDFAVYYCQNGHSFPLTFGQGTKLEIK
20 | 14 | VH SEQ ID NO 554 / VL SEQ ID NO 326 (antibody, IgG4, V domains shown, humanized 11F2; IgG4 S228P/kappa) VH: QVQLQESGPGLVKPSDTLSLTCAVSGYSISSDSAWSWIRQFPGKGLEWIGYIQYSGSTNYNPSLKSRVTMSVDTSKNQFSLKLSSVTALDTAVYYCARSVNYYGNSFAVGPWGQGTLVTVSS VL: EIVLTQSPATLSLSPGERATLSCRASQGISDYLHWYQQKPGEAPRLLIKYTSQPATGIPARFSGSGSGTDFTLTISSLEPEDFGVYYCQNGHSFPLTFGAGTKLELK

From patent US20220064329A1 (Novo Nordisk, published 2022)
